The values that follow come from patent publication US20240327525A1 (VIB VZW, published 2024).

Like-named read-outs stand apart in the source and are kept apart here.

What is called koff is the rate constant with which the complex falls apart. Read a low koff as a long-lived complex. For orientation: kon means a measure of how fast the partners come together. Broadly, the Kd is a measure of binding affinity in units of concentration. Low readings indicate higher affinity, high ones lower affinity.

The target of assay [1] is T1, human CI-M6PR domain1-3His6 (human, UniProt P11717 41-467).
T1 construct: Recombinant, made in HEK293 cells; Biotinylated with NHS-PEG4-biotin for BLI; unlabelled in SEC-MALLS and crystallisation; also called CI-M6PR hDom1-3His6; hDom1-3His6
Nature of the assay: BLI, association pH 7.4, dissociation at pH 5.0, mean of local fits. As for the experimental part:
(§1) FIG. 19-20. Association-dissociation graphs of anti-CI-M6PR VHH1H11 and VHH1H52, resp. analyzed using BLI. BLI was performed on an Octet Red96 (FortéBio) instrument in kinetics buffer (0.2 M Na₂HPO₄, 0.1 M Na⁺citrate, 0.01% bovine serum albumin, 0.002% Tween-20). Biotinylated human domain₁₋₃His₆ was immobilized on Streptavidin SA biosensors (Sartorius) to a signal of 0.6 nm. A 120 s association phase in VHH 1H11 (FIG. 19) or VHH 1H52 (FIG. 20) serially diluted (0-200 nM) in pH 7.4 phosphate citrate buffer, was followed by 420 s of dissociation in phosphate buffer of either pH 7.4, 6.5, 6.0, 5.5 or 5.0. Between assays, biosensors were regenerated by three times 10 s exposure to regeneration buffer (10 mM glycine pH 3). The degree of association and dissociation was measured in δ nm over time(s).
(§2) For VHH 1H11 (SEQ ID NO: 24) and VHH 1H52 (SEQ ID NO: 25), a BLI experiment was performed in which the human CI-M6PR domain₁₋₃His₆ was biotinylated and coupled to streptavidin biosensor tips. […] For measurements with association at pH 7.4 and dissociation at pH 6.5, 6.0, 5.5 and 5.0, the depicted dissociation rate constants are an average of the parameters determined by local curve fitting of the dissociation of 200, 100 and 50 nM VHH. […]
For orientation: Biolayer interferometry detects binding as a change in optical thickness at a sensor tip.

Assay [2] concerns the target T1, human CI-M6PR domain1-3His6. Nature of the assay: BLI, association pH 7.4, dissociation at pH 5.5, mean of local fits. As to the method: as §1, §2
Assay [3] has the same target. The assay can be described thus: BLI, association pH 7.4, dissociation at pH 6.0, mean of local fits. As to the method:
as §1, §2

The target is the same in assay [4]. The assay can be described thus: BLI, association pH 7.4, dissociation at pH 6.5, mean of local fits. As for the experimental part:
(§3) For VHH 1H11 (SEQ ID NO: 24) and VHH 1H52 (SEQ ID NO: 25), a BLI experiment was performed in which the human CI-M6PR domain₁₋₃His₆ was biotinylated and coupled to streptavidin biosensor tips. After loading, the tips were incubated with VHHs serially diluted in pH 7.4 kinetic buffer during the association phase and dissociation was performed at pH 7.4, pH 6.5, pH 6.0, pH 5.5 and pH 5.0. All biosensor tips were then regenerated before analysis of the subsequent VHH. […] When both association and dissociation were performed at pH 7.4, a global fit was performed according to the 1:1 binding model of which the resulting affinity constants (KD), association (kₒₙ) and dissociation rate constants (koff) are shown. For measurements with association at pH 7.4 and dissociation at pH 6.5, 6.0, 5.5 and 5.0, the depicted dissociation rate constants are an average of the parameters determined by local curve fitting of the dissociation of 200, 100 and 50 nM VHH. Association-dissociation curves for VHH1H11 and VHH1H52 are shown in FIG. 19 and FIG. 20, respectively.

Assay [5] has the same target. Nature of the assay: BLI, biotinylated antigen on SA tips, global 1:1 fit, association at pH 7.4. As for the experimental part:
as §3

For assay [6] the target is unchanged. Nature of the assay: BLI, biotinylated antigen on SA tips, global 1:1 fit, dissociation at pH 7.4. As to the method:
as §3

The target is the same in assay [7]. The assay can be described thus: BLI at pH 7.4.
For assay [8], the target named is human cation-independent mannose-6-phosphate receptor on cells (human, UniProt P11717 41-2491). The assay can be described thus: cell-based or functional assay.
Assay [9] addresses T1, human CI-M6PR domain1-3His6. The assay can be described thus: BLI, association pH 7.4, dissociation at pH 5.0, mean of local fits. As for the experimental part: (§4) FIGS. 9A-9E. […] BLI was performed on an Octet Red96 (FortéBio) instrument in kinetics buffer (0.2 M Na₂HPO₄, 0.1 M Na⁺citrate, 0.01% bovine serum albumin, 0.002% Tween-20). Biotinylated human domain₁₋₃His₆ was immobilized on Streptavidin SA biosensors (Sartorius) to a signal of 0.6 nm. […] Between runs, biosensors were regenerated by three times 10 s exposure to regeneration buffer (10 mM glycine pH 3). The degree of association and dissociation was measured in δ nm over time(s).
(§5) FIGS. 10A-10E. […] BLI was performed on an Octet Red96 (FortéBio) instrument in kinetics buffer (0.2 M Na₂HPO₄, 0.1 M Na⁺citrate, 0.01% bovine serum albumin, 0.002% Tween-20). Biotinylated human domain₁₋₃His₆ was immobilized on Streptavidin SA biosensors (Sartorius) to a signal of 0.6 nm. […] Between assays, biosensors were regenerated by three times 10 s exposure to regeneration buffer (10 mM glycine pH 3). The degree of association and dissociation was measured in δ nm over time(s).
The source holds these as a separate data set.

Assay [10] has the same target. Nature of the assay: BLI, association pH 7.4, dissociation at pH 5.5, mean of local fits. As for the experimental part:
as §4, §5
This is another data set of the same source.

The target is the same in assay [11]. Nature of the assay: BLI, association pH 7.4, dissociation at pH 6.0, mean of local fits. As to the method:
as §4, §5
This is another data set of the same source.

For assay [12] the target is unchanged. Nature of the assay: BLI, association pH 7.4, dissociation at pH 6.5, mean of local fits. As to the method: as §4, §5
This is another data set of the same source.

Assay [13] shares this target. Nature of the assay: BLI, biotinylated antigen on SA tips, global 1:1 fit, association at pH 7.4. As to the method: (§6) Biotinylated human domain₁₋₃His₆ was immobilized on Streptavidin SA biosensors (Sartorius) to a signal of 0.6 nm. […] Between runs, biosensors were regenerated by three times 10 s exposure to regeneration buffer (10 mM glycine pH 3). The degree of association and dissociation was measured in δ nm over time(s).
as §5
(§7) After loading, the tips were incubated with VHHs serially diluted in pH 7.4 kinetic buffer during the association phase and dissociation was performed at pH 7.4, pH 6.5, pH 6.0, pH 5.5 and pH 5.0. All biosensor tips were then regenerated before analysis of the subsequent VHH. Table 3 summarizes the kinetic parameters retrieved after processing and curve fitting of the BLI measurements.
The source holds these as a separate data set.

The target is the same in assay [14]. Nature of the assay: BLI, biotinylated antigen on SA tips, global 1:1 fit, dissociation at pH 7.4. As to the method:
as §6, §5, §7
This is another data set of the same source.

Assay [15] shares this target. Nature of the assay: not stated in the sentence (pH-dependent dissociation).

B1: anti-CI-M6PR VHH 1H52 (VHH)
VHH: QVQLQESGGGLVQPGGSLRLSCTASGFTWDSYVIGWFRQAPGKGREGVSCLDVDDGSIYYHDSAKGRFSISRDNAKNTVYLQMNSLKPEDTAVYYCAAVNRASMRFRRCLQVLRYDYWGQGTQVTVSS
notes: Made in E. coli (pHEN6c), IMAC purified; tag not specified
On to B1, for which the koff came to 0.2 s⁻¹ in [1]; 0.051 s⁻¹ in assay [2]; 0.03 s⁻¹ in assay [3]; 0.067 s⁻¹ in [4]; 0.032 s⁻¹ in assay [6]. Besides, the kon in assay [5] was found to be 1e+06 M⁻¹ s⁻¹. In assay [6], this molecule showed a Kd of 31 nM.

B2: anti-CI-M6PR VHH8 (VHH)
VHH: QVQLQESGGGLVQAGGSLRLSCEASGRTFNTYNWGWFRQAPGKEREFVAAIRWSSSKTSYADSVKGRFTISRDNAKNTIYLQMNSLKPEDTAVYYCAASIVDFTTNPSHFGSWGQGTQVTVSS
notes: Purified by IMAC, so tagged; Labelled with Alexa Fluor 488 (NHS ester) in the imaging experiments
Consider B2, for which the figures for the Kd in [7] and in assay [14] were about 3.35 nM and 0.534 nM, respectively. The “internalisation rate (live-cell imaging of AF488-VHH on MCF7 cells)” value in assay [8] was 673000 summed AF-voxels/minute. The koff came to 0.023 s⁻¹ in assay [9]; 0.0034 s⁻¹ in assay [10]; 0.00091 s⁻¹ in assay [11]; 0.00084 s⁻¹ in [12]; 0.00032 s⁻¹ in assay [14]. In assay [13], this molecule had a kon of 610000 M⁻¹ s⁻¹.

B3: anti-CI-M6PR VHH 1H11 (VHH)
VHH: QVQLQESGGGLVQPGGSLRLSCAASGIIFSDNRMDWYRQAPGKQREWVATLASYGWKTYADSVKDRFTISRDNAKNTVNLYMNSLQPEDTAVYYCNSGQYWGQGTQVTVSS
notes: as for B1
Take B3: the koff amounted to 0.0083 s⁻¹ in assay [1]; 0.0063 s⁻¹ in assay [2]; 0.0051 s⁻¹ in assay [3]; 0.0048 s⁻¹ in [4]; 0.0025 s⁻¹ in assay [6]. In assay [5], this molecule had a kon of 510000 M⁻¹ s⁻¹. Besides, binding in assay [6] was put at a Kd of 4.9 nM.

B4: anti-CI-M6PR VHH7 (VHH)
VHH: QVQLQESGGGLVQPGGSLRLSCAASGIIFSDNRMDWYRQAPGKQREWVATLASYGWKTYADSVKGRFTISRDNTKNTVYLRMNSLKPEDTAVYYCKASSPVLNDIWGQGTQVTVSS
notes: as for B2
As for B4, the “internalisation rate (live-cell imaging of AF488-VHH on MCF7 cells)” value in [8] was 1.26e+06 summed AF-voxels/minute. In assay [15], the “fold higher dissociation rate at pH 6.0 versus pH 7.4” value came to 5 fold. Besides, the koff in assay [9] was found to be 0.017 s⁻¹; in assay [10], 0.013 s⁻¹; in [11], 0.0099 s⁻¹; in [12], 0.0091 s⁻¹; in assay [14] it was 0.0055 s⁻¹. The kon in assay [13] is 540000 M⁻¹ s⁻¹. In assay [14], the dissociation constant Kd worked out at 10.1 nM.
